Source: US20210292396A1

Assays:
Assay in all cases: cell-based or functional assay
[1] = biological target: Env of HIV isolate ZA012.29 (clade C) (HIV)
[2] = biological target: Env of HIV isolate HXB2.DG (clade B) (HIV)
[3] = biological target: Env of HIV isolate 6101.10 (clade B) (HIV)
[4] = biological target: Env of HIV isolate BS208.B1 (clade A) (HIV)
[5] = biological target: HIV Env of isolate CNE53 (HIV)
[6] = biological target: HIV Env of isolate 25710-2.43 (HIV)
[7] = biological target: Env of HIV isolate WITO.33 (clade B) (HIV)
[8] = biological target: Env of HIV isolate BR025.9 (clade C) (HIV)
[9] = biological target: Env of HIV isolate 0439.v5.c1 (clade A) (HIV)
[10] = biological target: HIV Env of isolate ZM53.12 (HIV)
[11] = biological target: HIV Env of isolate 25925-2.22 (HIV)
[12] = biological target: Env of HIV isolate MW965.26 (clade C) (HIV)
[13] = biological target: Env of HIV isolate 286.36 (clade C) (HIV)
[14] = biological target: Env of HIV isolate 6535.3 (clade B) (HIV)
[15] = biological target: Env of HIV isolate T280-5 (clade AG) (HIV)
[16] = biological target: Env of HIV isolate R1166.C1 (clade AE) (HIV)
[17] = biological target: Env of HIV isolate X2131.C1.B5 (clade G) (HIV)
[18] = biological target: HIV Env of isolate TZA125.17 (HIV)
[19] = biological target: Env of HIV isolate 001428-2.42 (clade C) (HIV)
[20] = biological target: Env of HIV isolate BJOX028000.10.3 (clade AE) (HIV)
[21] = biological target: Env of HIV isolate ZM135.10a (clade C) (HIV)
Env of SIVmac251.30.SG3 = biological target: Env of SIVmac251.30.SG3
[22] = biological target: HIV Env of isolate UG021.16 (HIV)
[23] = biological target: HIV Env of isolate 286.36 (HIV)
[24] = biological target: Env of HIV isolate ZM215.8 (clade C) (HIV)
[25] = biological target: Env of HIV isolate 246-F3.C10.2 (clade AC) (HIV)
[26] = biological target: HIV Env of isolate ZM176.66 (HIV)
[27] = biological target: Env of HIV isolate 6540.v4.c1 (clade AC) (HIV)
[28] = biological target: Env of HIV isolate R2184.c4 (clade AE) (HIV)
[29] = biological target: Env of HIV isolate BJOX002000.03.2 (clade BC) (HIV)
[30] = biological target: Env of HIV isolate CNE15 (clade BC) (HIV)
[31] = biological target: Env of HIV isolate ZM109.4 (clade C) (HIV)
[32] = biological target: Env of HIV isolate 3168.v4.c10 (clade C) (HIV)
[33] = biological target: Env of HIV isolate 3415.v1.c1 (clade A) (HIV)
[34] = biological target: Env of HIV isolate 6471.v1.c16 (clade C) (HIV)
[35] = biological target: Env of HIV isolate Q461.e2 (clade AD) (HIV)
[36] = biological target: Env of HIV isolate CNE14 (clade B) (HIV)
[37] = biological target: HIV Env of isolate X2131.C1.B5 (HIV)
[38] = biological target: Env of HIV isolate X1193.c1 (clade G) (HIV)
[39] = biological target: Env of HIV isolate AC10.29 (clade B) (HIV)
[40] = biological target: Env of HIV isolate DU422.01 (clade C) (HIV)
[41] = biological target: HIV Env of isolate 0921.v2.c14 (HIV)
[42] = biological target: Env of HIV isolate ADA.DG (clade B) (HIV)
[43] = biological target: HIV Env of isolate DU123.06 (HIV)
[44] = biological target: Env of HIV isolate CE703010217.B6 (clade C) (HIV)
[45] = biological target: Env of HIV isolate REJO.67 (clade B) (HIV)
[46] = biological target: HIV Env of isolate 6405.v4.c34 (HIV)
[47] = biological target: HIV Env of isolate 231965.c01 (HIV)
[48] = biological target: Env of HIV isolate 231965.c01 (clade D) (HIV)
[49] = biological target: HIV Env of isolate CNE15 (HIV)

B1: ePGT121.18 (ePGT121.18.H1 VH and ePGT121.17.L1 VL) (antibody, V domains shown)
VH: QMQLQESGPGLVKPGETLSLTCSVSGASISSSYWSWLRETPGKGLEWIGYTHHSGDTNYAPSLKSRVHLGLHPSKNQVSLSLTSVTAADTAVYYCARTLHGRRIYGVVAFNEYYTYFYWPTWGKGTQVTVSS
VL: SDISVAPGETVRITCGGESIGSRAVQWYQHRPGQAPRLIIYNNQDRPPGIPERFSGSPDIDFGTTATLTISNVEAGDEATYYCHIWDSRRPTNWELGPGTTLTVL
IC50, pseudovirus neutralization [1]: 0.002 µg/mL | IC50, pseudovirus neutralization [2]: 0.003 µg/mL | IC50, pseudovirus neutralization [3]: 0.001 µg/mL | IC50, pseudovirus neutralization [4]: > 50 µg/mL | IC80, pseudovirus neutralization (M1) [5]: 0.006 µg/mL | IC80, pseudovirus neutralization (M2) [5]: 0.009 µg/mL | IC80, pseudovirus neutralization (M1) [6]: 0.01 µg/mL | IC80, pseudovirus neutralization (M2) [6]: 0.013 µg/mL | IC50, pseudovirus neutralization [7]: 0.004 µg/mL | IC50, pseudovirus neutralization [8]: 0.001 µg/mL | IC50, pseudovirus neutralization [9]: 5.67 µg/mL | IC80, pseudovirus neutralization (M1) [10]: 0.02 µg/mL | IC80, pseudovirus neutralization (M2) [10]: 0.032 µg/mL | IC80, pseudovirus neutralization (M1) [11]: 0.008 µg/mL | IC80, pseudovirus neutralization (M2) [11]: 0.01 µg/mL | IC50, pseudovirus neutralization [12]: 0.003 µg/mL | IC50, pseudovirus neutralization [13]: 0.001 µg/mL | IC50, pseudovirus neutralization [14]: 0.001 µg/mL | IC50, pseudovirus neutralization [15]: 0.002 µg/mL | IC50, pseudovirus neutralization [16]: > 50 µg/mL | IC50, pseudovirus neutralization [17]: 0.0009 µg/mL | IC80, pseudovirus neutralization (M1) [18]: 0.137 µg/mL | IC80, pseudovirus neutralization (M2) [18]: 0.186 µg/mL | IC50, pseudovirus neutralization [19]: 0.001 µg/mL | IC50, pseudovirus neutralization [20]: 0.054 µg/mL | IC50, pseudovirus neutralization [21]: 0.026 µg/mL | IC80, pseudovirus neutralization (M1) (Env of SIVmac251.30.SG3): > 50 µg/mL | IC80, pseudovirus neutralization (M2) (Env of SIVmac251.30.SG3): > 50 µg/mL | IC80, pseudovirus neutralization (M1) [22]: 0.02 µg/mL | IC80, pseudovirus neutralization (M2) [22]: 0.019 µg/mL | IC80, pseudovirus neutralization (M1) [23]: 0.003 µg/mL | IC80, pseudovirus neutralization (M2) [23]: 0.004 µg/mL | IC50, pseudovirus neutralization [24]: 0.006 µg/mL | IC50, pseudovirus neutralization [25]: 4.8 µg/mL | IC80, pseudovirus neutralization (M1) [26]: 0.091 µg/mL | IC80, pseudovirus neutralization (M2) [26]: 0.106 µg/mL | IC50, pseudovirus neutralization [27]: > 50 µg/mL | IC50, pseudovirus neutralization [28]: > 50 µg/mL | IC50, pseudovirus neutralization [29]: 0.002 µg/mL | IC50, pseudovirus neutralization [30]: 5.69 µg/mL | IC50, pseudovirus neutralization [31]: 7.26 µg/mL | IC50, pseudovirus neutralization [32]: 0.012 µg/mL | IC50, pseudovirus neutralization [33]: 0.006 µg/mL | IC50, pseudovirus neutralization [34]: 0.378 µg/mL | IC50, pseudovirus neutralization [35]: > 50 µg/mL | IC50, pseudovirus neutralization [36]: 0.001 µg/mL | IC80, pseudovirus neutralization (M1) [37]: 0.002 µg/mL | IC80, pseudovirus neutralization (M2) [37]: 0.003 µg/mL | IC50, pseudovirus neutralization [38]: 0.002 µg/mL | IC50, pseudovirus neutralization [39]: 0.001 µg/mL | IC50, pseudovirus neutralization [40]: 0.006 µg/mL | IC80, pseudovirus neutralization (M1) [41]: 1.03 µg/mL | IC80, pseudovirus neutralization (M2) [41]: 1.49 µg/mL | IC50, pseudovirus neutralization [42]: 0.002 µg/mL | IC80, pseudovirus neutralization (M1) [43]: 0.006 µg/mL | IC80, pseudovirus neutralization (M2) [43]: 0.005 µg/mL | IC50, pseudovirus neutralization [44]: 0.002 µg/mL | IC50, pseudovirus neutralization [45]: 0.731 µg/mL | IC80, pseudovirus neutralization (M1) [46]: 0.004 µg/mL | IC80, pseudovirus neutralization (M2) [46]: 0.005 µg/mL | IC80, pseudovirus neutralization (M1) [47]: > 50 µg/mL | IC80, pseudovirus neutralization (M2) [47]: > 50 µg/mL | IC50, pseudovirus neutralization [48]: 9.17 µg/mL | IC80, pseudovirus neutralization (M1) [49]: 36.4 µg/mL | IC80, pseudovirus neutralization (M2) [49]: > 50 µg/mL

B2: ePGT121.15.H2.L1 (antibody, V domains shown)
VH: QMQLQESGPGLVKPGETLSLTCSVSGASISSSYWSWLRETPGKGLEWIGYTHHSGDTNYAPSLKSRVHLGLHPSKNQVSLSLTSVTAADTAVYYCARTLHGRRIYGVVAFNEWFTYFYWEVWGKGTQVTVSS
VL: SDISVAPGETVRISCGGESIGSRAVQWYQHRAGQAPKLIIYNNQDRPPGIPERFSGSPDIDFGTTATLTITNVEAGDEATYYCHIWDSRRPTNWVFGGGTTLTVL
neutralization (Table 6 value) [5]: 0.00162 | neutralization (Table 6 value) [47]: 0.285

B3: ePGT121.18.17 (ePGT121.18.H17 VH and ePGT121.17.L1 VL) (antibody, V domains shown)
VH: QMQLQESGPGLVKPGETLSLTCSVSGASISSSYWSWLRETPGKGLEWIGYTHHSGDTNYAPSLKSRVTIGLDPSKNQVSLSLTSVTAADTAVYYCARTLHGRRIYGVVAFNEYYTYFYWPTWGKGTQVTVSS
VL: SDISVAPGETVRITCGGESIGSRAVQWYQHRPGQAPRLIIYNNQDRPPGIPERFSGSPDIDFGTTATLTISNVEAGDEATYYCHIWDSRRPTNWELGPGTTLTVL
IC50, pseudovirus neutralization [1]: 0.005 µg/mL | IC50, pseudovirus neutralization [2]: 0.016 µg/mL | IC50, pseudovirus neutralization [3]: 0.004 µg/mL | IC50, pseudovirus neutralization [4]: > 50 µg/mL | IC80, pseudovirus neutralization [5]: 0.019 µg/mL | IC80, pseudovirus neutralization [6]: 0.026 µg/mL | IC50, pseudovirus neutralization [7]: 0.015 µg/mL | IC50, pseudovirus neutralization [8]: 0.003 µg/mL | IC50, pseudovirus neutralization [9]: > 50 µg/mL | IC80, pseudovirus neutralization [10]: 0.079 µg/mL | IC80, pseudovirus neutralization [11]: 0.021 µg/mL | IC50, pseudovirus neutralization [12]: 0.004 µg/mL | IC50, pseudovirus neutralization [13]: 0.003 µg/mL | IC50, pseudovirus neutralization [14]: 0.002 µg/mL | IC50, pseudovirus neutralization [15]: 0.006 µg/mL | IC50, pseudovirus neutralization [16]: > 50 µg/mL | IC50, pseudovirus neutralization [17]: 0.002 µg/mL | IC80, pseudovirus neutralization [18]: 0.549 µg/mL | IC50, pseudovirus neutralization [19]: 0.004 µg/mL | IC50, pseudovirus neutralization [20]: 0.338 µg/mL | IC50, pseudovirus neutralization [21]: 0.145 µg/mL | IC80, pseudovirus neutralization (Env of SIVmac251.30.SG3): > 50 µg/mL | IC80, pseudovirus neutralization [22]: 0.078 µg/mL | IC80, pseudovirus neutralization [23]: 0.006 µg/mL | IC50, pseudovirus neutralization [24]: 0.016 µg/mL | IC50, pseudovirus neutralization [25]: 18.5 µg/mL | IC80, pseudovirus neutralization [26]: 0.454 µg/mL | IC50, pseudovirus neutralization [27]: > 50 µg/mL | IC50, pseudovirus neutralization [28]: > 50 µg/mL | IC50, pseudovirus neutralization [29]: 0.004 µg/mL | IC50, pseudovirus neutralization [30]: 14 µg/mL | IC50, pseudovirus neutralization [31]: 8.44 µg/mL | IC50, pseudovirus neutralization [32]: 0.053 µg/mL | IC50, pseudovirus neutralization [33]: 0.062 µg/mL | IC50, pseudovirus neutralization [34]: 1.09 µg/mL | IC50, pseudovirus neutralization [35]: > 50 µg/mL | IC50, pseudovirus neutralization [36]: 0.003 µg/mL | IC80, pseudovirus neutralization [37]: 0.007 µg/mL | IC50, pseudovirus neutralization [38]: 0.005 µg/mL | IC50, pseudovirus neutralization [39]: 0.004 µg/mL | IC50, pseudovirus neutralization [40]: 0.013 µg/mL | IC80, pseudovirus neutralization [41]: 3.48 µg/mL | IC50, pseudovirus neutralization [42]: 0.005 µg/mL | IC80, pseudovirus neutralization [43]: 0.013 µg/mL | IC50, pseudovirus neutralization [44]: 0.005 µg/mL | IC50, pseudovirus neutralization [45]: 1.43 µg/mL | IC80, pseudovirus neutralization [46]: 0.012 µg/mL | IC80, pseudovirus neutralization [47]: > 50 µg/mL | IC50, pseudovirus neutralization [48]: > 50 µg/mL | IC80, pseudovirus neutralization [49]: > 50 µg/mL
